The supplement of paper PMC9233669
Variants at the floor of the assay were thinned out.

Legend:
[1] = system: biotinyl-Phe-oxazolone; assay: self-aminoacylation, catalytic enhancement (BFO) (fold over background); higher = more active; k-Seq, kA / k0A0; sequences stand for … in GGGAAUGGAUCCACAUCUACGAAUUC…UUCACUGCAGACUUGACGAAGCUG
Method in brief: (§1)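 Working in 50 μL HEPES/NaCl/KCl/MgCl2/CaCl2 buffer with 5% acetonitrile at pH 6.9–7.0, mutagenized RNA pools (0.43 μM; 21-nt variable region) were reacted with 2–1250 μM of each biotinyl-aminoacyl-oxazolone for 90 minutes at room temperature. Streptavidin capture followed, with quantification by triplicate qPCR and Illumina sequencing. Catalytic enhancement is reported as median kA over the uncatalyzed rate, the low-activity peak of a bimodal Gaussian fit to the data.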

[2] = system: biotinyl-Ile-oxazolone; assay: self-aminoacylation, catalytic enhancement (BIO) (fold over background); higher = more active; k-Seq, kA / k0A0; sequences stand for … in GGGAAUGGAUCCACAUCUACGAAUUC…UUCACUGCAGACUUGACGAAGCUG
Method in brief: as §1

[3] = system: biotinyl-Met-oxazolone; assay: self-aminoacylation, catalytic enhancement (BMO) (fold over background); higher = more active; k-Seq, kA / k0A0; sequences stand for … in GGGAAUGGAUCCACAUCUACGAAUUC…UUCACUGCAGACUUGACGAAGCUG
Method in brief: as §1

[4] = system: biotinyl-Val-oxazolone; assay: self-aminoacylation, catalytic enhancement (BVO) (fold over background); higher = more active; k-Seq, kA / k0A0; sequences stand for … in GGGAAUGGAUCCACAUCUACGAAUUC…UUCACUGCAGACUUGACGAAGCUG
Method in brief: as §1

[5] = system: biotinyl-Leu-oxazolone; assay: self-aminoacylation, catalytic enhancement (BLO) (fold over background); higher = more active; k-Seq, kA / k0A0; sequences stand for … in GGGAAUGGAUCCACAUCUACGAAUUC…UUCACUGCAGACUUGACGAAGCUG
Method in brief: as §1

[6] = system: biotinyl-Trp-oxazolone; assay: self-aminoacylation, catalytic enhancement (BWO) (fold over background); higher = more active; k-Seq, kA / k0A0; sequences stand for … in GGGAAUGGAUCCACAUCUACGAAUUC…UUCACUGCAGACUUGACGAAGCUG
Method in brief: as §1

Row | Sequence | self-aminoacylation [1] | self-aminoacylation [2] | self-aminoacylation [3] | self-aminoacylation [4] | self-aminoacylation [5] | self-aminoacylation [6]
1 | CCACACCUCAAGCAAUCGGUC [Fam1B.1 aminoacylation ribozyme variant] | 2.37 | 1.03 | 0.862 | 1.15 | 0.908 | 1.56
2 | CCACACCUCAAGCGAUCGGUC [Fam1B.1 aminoacylation ribozyme variant] | 1.09 | 1.31 | 1.33 | 1.73 | 1.69 | 1.5
3 | CCACACCUCCAGCAAUCGGUC [Fam1B.1 aminoacylation ribozyme variant] | 1.64 | 1.69 | 1.27 | 1.4 | 1.15 | 1.19
4 | CCACACGUCAAGAAAUCGGUC [Fam1B.1 aminoacylation ribozyme variant] | 1.01 | 1.28 | 1.17 | 1.44 | 1.28 | 0.951
5 | CCACACGUCAAGCAAUCUGUC [Fam1B.1 aminoacylation ribozyme variant] | 0.326 | 0.54 | 0.472 | 0.543 | 0.422 | 0.24
6 | CCACACGUCAAGCACUCGGUC [Fam1B.1 aminoacylation ribozyme variant] | 2.16 | 1.17 | 1.13 | 2.17 | 1.23 | 1.1
7 | CCACACGUCUAGCAAUCGGUC [Fam1B.1 aminoacylation ribozyme variant] | 0.972 | 1.01 | 0.9 | 1.15 | 0.937 | 0.768
8 | CCACACUACAAGCAAUGGGUC [Fam1B.1 aminoacylation ribozyme variant] | 0.762 | 0.72 | 0.778 | 0.842 | 0.511 | 0.735
9 | CCACACUAGAAGCAAUCGGUC [Fam1B.1 aminoacylation ribozyme variant] | 0.713 | 0.809 | 0.747 | 0.961 | 0.954 | 0.873
10 | CCACACUCCAAGCAAUCGCUC [Fam1B.1 aminoacylation ribozyme variant] | 0.753 | 1.92 | 1.29 | 2.56 | 1.38 | 2.47
11 | CCACACUCCAAGCAAUCGGAC [Fam1B.1 aminoacylation ribozyme variant] | 0.729 | 1.09 | 0.74 | 0.937 | 1.37 | 0.574
12 | CCACACUCCAAGCAAUCGGUG [Fam1B.1 aminoacylation ribozyme variant] | 59.9 | 4.43 | 7.47 | 4.45 | 9.97 | 6.72
13 | CCACACUCCACGCAAUCGGUC [Fam1B.1 aminoacylation ribozyme variant] | 0.759 | 1.51 | 1 | 1.62 | 1.2 | 1.18
14 | CCACACUCCCAGCAAUCGGUC [Fam1B.1 aminoacylation ribozyme variant] | 0.634 | 1.65 | 1.41 | 1.59 | 1.6 | 1.02
15 | CCACACUCUAAGCAAUCGGUC [Fam1B.1 aminoacylation ribozyme variant] | 1.04 | 0.985 | 0.69 | 1.06 | 0.683 | 0.903
16 | CCACACUGCAAGAAAUCGGUC [Fam1B.1 aminoacylation ribozyme variant] | 1.29 | 1.51 | 1.12 | 1.72 | 1.51 | 1.51
17 | CCACACUGCAAGCAAUAGGUC [Fam1B.1 aminoacylation ribozyme variant] | 1.15 | 0.905 | 0.777 | 0.907 | 0.915 | 0.601
18 | CCACACUGCAAGCAAUCGCUC [Fam1B.1 aminoacylation ribozyme variant] | 16 | 2.73 | 2.1 | 2.35 | 2.4 | 1.78
19 | CCACACUGCAAGCAAUCGGUA [Fam1B.1 aminoacylation ribozyme variant] | 0.894 | 2.19 | 2.16 | 2.25 | 2.11 | 2.33
20 | CCACACUUAAAGCAAUCGGCC [Fam1B.1 aminoacylation ribozyme variant] | 7.34 | 1.72 | 1.71 | 1.97 | 2.15 | 1.7
21 | CCACACUUAAAGCAUUCGGUC [Fam1B.1 aminoacylation ribozyme variant] | 1.03 | 1.63 | 1.17 | 1.58 | 1.29 | 1.15
22 | CCACACUUAAAGCGAUCGGUC [Fam1B.1 aminoacylation ribozyme variant] | 0.793 | 1.23 | 0.963 | 1.18 | 1 | 0.934
23 | CCACACUUAAAUCAAUCGGUC [Fam1B.1 aminoacylation ribozyme variant] | 0.699 | 0.829 | 0.589 | 0.914 | 0.787 | 0.868
24 | CCACACUUAAGGCAAUCGGUC [Fam1B.1 aminoacylation ribozyme variant] | 0.764 | 1.15 | 0.983 | 0.981 | 1.03 | 1.25
25 | CCACACUUAAUGCAAUCGGUC [Fam1B.1 aminoacylation ribozyme variant] | 0.949 | 0.855 | 0.752 | 0.763 | 0.693 | 0.642
26 | CCACACUUAUAGCAAUCGGUC [Fam1B.1 aminoacylation ribozyme variant] | 0.926 | 1 | 0.667 | 0.927 | 0.722 | 0.886

Row | Sequence | self-aminoacylation [1] | self-aminoacylation [2] | self-aminoacylation [3] | self-aminoacylation [4] | self-aminoacylation [5] | self-aminoacylation [6]
27 | CCACACUUCAACCAAUCAGUC [Fam1B.1 aminoacylation ribozyme variant] | 28.8 | 0.978 | 0.804 | 1.04 | 1.04 | 9.75
28 | CCACACUUCAACCAAUCUGUC [Fam1B.1 aminoacylation ribozyme variant] | 0.77 | 0.426 | 0.419 | 0.607 | 0.377 | 0.369
29 | CCACACUUCAAGAAAUCGCUC [Fam1B.1 aminoacylation ribozyme variant] | 0.492 | 1.13 | 1.14 | 1.05 | 0.886 | 0.881
30 | CCACACUUCAAGAAAUCGGUG [Fam1B.1 aminoacylation ribozyme variant] | 55.3 | 4.82 | 6.53 | 3.53 | 10.6 | 8.37
31 | CCACACUUCAAGCAAACGGUG [Fam1B.1 aminoacylation ribozyme variant] | 10.7 | 3.12 | 3.91 | 3.33 | 5.1 | 4.31
32 | CCACACUUCAAGCAACCGGCC [Fam1B.1 aminoacylation ribozyme variant] | 17.4 | 3.66 | 4.29 | 3.58 | 2.77 | 5.33
33 | CCACACUUCAAGCAAUAGGCC [Fam1B.1 aminoacylation ribozyme variant] | 0.88 | 0.939 | 0.9 | 1.04 | 1.05 | 0.71
34 | CCACACUUCAAGCAAUCAGUG [Fam1B.1 aminoacylation ribozyme variant] | 6.8 | 3 | 3.58 | 2.83 | 4.36 | 2.99
35 | CCACACUUCAAGCAAUCCUUC [Fam1B.1 aminoacylation ribozyme variant] | 1.19 | 0.89 | 0.649 | 0.899 | 0.44 | 0.533
36 | CCACACUUCAAGCAAUCGACC [Fam1B.1 aminoacylation ribozyme variant] | 1.25 | 0.623 | 0.518 | 0.751 | 0.399 | 0.447
37 | CCACACUUCAAGCAAUCGCAC [Fam1B.1 aminoacylation ribozyme variant] | 0.785 | 0.76 | 0.814 | 0.889 | 0.465 | 0.672
38 | CCACACUUCAAGCAAUCGGAU [Fam1B.1 aminoacylation ribozyme variant] | 0.817 | 1.03 | 0.886 | 1.38 | 0.789 | 1.63
39 | CCACACUUCAAGCAAUCUGCC [Fam1B.1 aminoacylation ribozyme variant] | 0.603 | 0.806 | 1.3 | 1.05 | 0.787 | 0.628
40 | CCACACUUCAAGCAAUGGGUU [Fam1B.1 aminoacylation ribozyme variant] | 0.91 | 1.22 | 1.14 | 1.71 | 1.39 | 1.46
41 | CCACACUUCAAGCACCCGGUC [Fam1B.1 aminoacylation ribozyme variant] | 0.709 | 1.55 | 1.74 | 1.75 | 1.64 | 2.07
42 | CCACACUUCAAGCACUCGCUC [Fam1B.1 aminoacylation ribozyme variant] | 2.93 | 2.02 | 2.25 | 2.07 | 2.39 | 1.51
43 | CCACACUUCAAGCAGACGGUC [Fam1B.1 aminoacylation ribozyme variant] | 0.719 | 0.686 | 0.607 | 0.57 | 0.605 | 0.539
44 | CCACACUUCAAGCAUUAGGUC [Fam1B.1 aminoacylation ribozyme variant] | 0.818 | 0.501 | 0.399 | 0.645 | 0.504 | 0.516
45 | CCACACUUCAAGCAUUCGGCC [Fam1B.1 aminoacylation ribozyme variant] | 0.749 | 1.84 | 1.25 | 1.99 | 1.63 | 1.69
46 | CCACACUUCAAGCAUUCGUUC [Fam1B.1 aminoacylation ribozyme variant] | 0.811 | 0.852 | 0.685 | 1.02 | 0.653 | 0.688
47 | CCACACUUCAAGCAUUGGGUC [Fam1B.1 aminoacylation ribozyme variant] | 0.918 | 1.04 | 1.03 | 1.4 | 0.83 | 0.956
48 | CCACACUUCAAGCAUUUGGUC [Fam1B.1 aminoacylation ribozyme variant] | 0.631 | 0.835 | 0.691 | 0.851 | 0.77 | 0.912
49 | CCACACUUCAAGCCAUCGGGC [Fam1B.1 aminoacylation ribozyme variant] | 1.42 | 2.49 | 1.85 | 3.22 | 4.06 | 2.1
50 | CCACACUUCAAGCCAUGGGUC [Fam1B.1 aminoacylation ribozyme variant] | 0.678 | 1.15 | 1.13 | 0.952 | 1.14 | 0.675
51 | CCACACUUCAAGCCCUCGGUC [Fam1B.1 aminoacylation ribozyme variant] | 5.16 | 1.4 | 2.01 | 1.58 | 1.64 | 1.92
